Test results taken from patent publication US5683890A, “Bacteriocins from Streptococcus thermophilus” (Nestec S.A., priority 1993, dated 1997).

B1: thermophilin 1: first bacteriocin from S. thermophilus CNCM I-1351, sequence SEQ ID NO: 1, found in fraction 15 (protein)
chain: YSGKDCLKDMGGYALAGAGSGALWGAPAGGVGALPGAFVGAHVGAIAGGFACMGGMIGNKFN

How the values were obtained:
[1] = biological target: standard crude extract of bacteriocin from the culture supernatant of S. thermophilus CNCM I-1351
[2] = test system: S. thermophilus strain Sfi3 (typical indicator); assay: Agar well test, antibacterial activity in arbitrary units; type: cell-based, Streptococcus thermophilus; conditions: Pep RPC fractions 15 and 21
Procedure: In order to do this, 35 ml of M 17 medium are poured into a Petri dish and 1% sucrose and 1.5% agar are added thereto.
5 ml of M 17 medium to which 1% sucrose and 0.75% agar are added are inoculated with 5 μl of a culture, prepared during the previous night, of a strain of S. thermophilus which is typically sensitive to the present bacteriocin (typical indicator), in this case the strain Sfi3 for example.
The 5 ml are poured over the 35 ml and left to dry for 15 min under a laminar flow. Holes of 5 mm in diameter are punched in the culture medium.
The test samples are poured into the holes, in an amount of 70 μl per hole. The incubation is carried out for 6 h under anaerobic conditions at 42° C. During this incubation, the typical indicator strain has grown and inhibition halos are visible.

Molecule	Inactivation (mm): diameter of the inhibition halo in the agar well test after incubation with the enzyme [1]	antibacterial activity of purified peptide fractions [2]
Catalase (SIGMA C-10) (enzyme)	14 mm	–
Ficin (SIGMA P-3266) (enzyme)	0 mm	–
Lipase (SIGMA L-0382) + protease inhibitors (enzyme)	14 mm	–
Nagarse (SIGMA P-4789) (enzyme)	0 mm	–
Pepsin (SIGMA P-700) (enzyme)	0 mm	–
Pronase E (SIGMA P-8038) (enzyme)	0 mm	–
Proteinase K (MERCK 1000 144) (from UniProt P06873) (enzyme)	0 mm	–
Trypsin (SIGMA T-8128) (enzyme)	0 mm	–
thermophilin 2: second bacteriocin from S. thermophilus CNCM I-1351, sequence SEQ ID NO: 2, predominant in fraction 21 (QINWGSVVGHCIGGAIIGGAFSGGAAAGVGCLVGSGKAIINGL)	–	antibacterial activity
α-amylase (SIGMA λ-0521) (enzyme)	14 mm	–
α-chymotrypsin (SIGMA C-7762) (enzyme)	0 mm	–
B1	–	antibacterial activity
